The values that follow come from paper PMC2939893, “Mammalian Otolin: A Multimeric Glycoprotein Specific to the Inner Ear that Interacts with Otoconial Matrix Protein Otoconin-90 and Cerebellin-1” (PLoS ONE, 2010).

This series deals with the molecule itself. Description: SEC; supernatant (500 µl) of transfected HEK293T cells with FLAG-tagged Otolin on Superdex 200 HR 10/30 in PBS; fractions immunoblotted with anti-FLAG M2.

B1: C-terminal FLAG-tagged Otolin (natural protein, mouse, UniProt Q4ZJM7 24-482, looked up)
chain: KTTPYTKFTKKSEGKEMLKGLKPSSGFFLDGEETVHTETAAMAEPTTGSPALAMAESTAGPSASATTRLLPFESFSLDTTGFVLNCCHCCSFVTGQKGEPGKMGKQGPKGETGDTGSPGHPGTTGPQGPKGQKGEKGLKGDRGDQGAGGIPGYPGKPGEQGALGPKGDKGTIGPAGTKGQKGSKGELCGNGTKGEKGDPGASGAHGFIGEPGAKGEKGGVGEKGYRGDLGERGEKGQKGEKGMEGEKGSRGDVGSEGKRGSDGLPGLRGDSGPKGEKGEIGSPGFTGPAGPKGELGSKGVRGPTGKKGSRGVKGSKGEATQVPQSAFSALLSKPFPPPNVPIKFDKILSNDQGDYSPVTGKFNCSVPGTYIFSYHVTVRGRPARISLVARNRKQFKSRETLYGQQVDQASLLLILKLSAGDQVWLEVSKDWNGLYVGPEDDSIFSGFLLYPEETFSKSP
modifications: hydroxyproline at Pro-141, 144, 174, 177, 180, 222, 234, 288 and 306; Lys-189 and Lys-315 hydroxylated and glycosylated with a glucosyl-galactosyl group (mass spectrometry of purified recombinant Otolin)
notes: Otolin, mouse, GenBank DQ002405; entire coding region (482 amino acids, own signal peptide) cloned and expressed; the secreted protein was collected from the medium; also called otolin-FLAG; recombinant Otolin; source: HEK293T, transiently transfected; not shown: FLAG, C-terminal, kept
Regarding B1, the binding result is “binds”.
